Reference: patent US20150175678A1 (BETH ISRAEL DEACONESS MEDICAL CENTER, published 2015)

Experiments:
[1] = biological target: HIV-1 JR-FL (Clade B, R5) envelope glycoprotein gp120 (HIV-1, isolate JR-FL); assay: cell-based or functional assay
[2] = biological target: HIV-1 67970 (Clade B, X4) envelope glycoprotein gp120 (HIV-1, isolate 67970); assay: cell-based or functional assay

B1: F425-A1g8 IgA1 antibody variant expressed from CHO-K1 cells (antibody)
heavy: QEQLVESGGGVVQPGRSLRLSCEASGFIFSAFVLHWVRQAPGKGLEWVAVVWYDGNSKYYADSVKGRFTISRDTSQNTLHLQMDSLRPEDTAVYYCAREWVADDDTFDGFDVWGQGTMVTVSSASLTSPKVFPLSLCSTQPDGNVVIACLVQGFFPQEPLSVTWSESGQGVTARNFPPSQDASGDLYTTSSQLTLPATQCLAGKSVTCHVKHYTNPSQDVTVPCPVPSTPPTPSPSTPPTPSPSCCHPRLSLHRPALEDLLLGSEANLTCTLTGLRDASGVTFTWTPSSGKSAVQGPPDRDLCGCYSVSSVLSGCAEPWNHGKTFTCTAAYPESKTPLTATLSKSGNTFRPEVHLLPPPSEELALNELVTLTCLARGFSPKDVLVRWLQGSQELPREKYLTWASRQEPSQGTTTFAVTSILRVAAEDWKKGDTFSCMVGHEALPLAFTQKTIDRLAGKPTHVNVSVVMAEVDGTCY
light: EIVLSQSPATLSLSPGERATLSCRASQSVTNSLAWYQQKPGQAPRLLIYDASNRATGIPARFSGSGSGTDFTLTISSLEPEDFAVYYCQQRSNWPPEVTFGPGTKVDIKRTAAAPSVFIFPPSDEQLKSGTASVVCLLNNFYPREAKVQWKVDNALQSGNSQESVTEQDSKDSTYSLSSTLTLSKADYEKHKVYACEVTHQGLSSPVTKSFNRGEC
Neutralization of HIV-1, IC50 (TZM-bl cells, beta-galactosidase) [1]: 1.73 µg/mL
Neutralization of HIV-1, IC50 (TZM-bl cells, beta-galactosidase) [2]: 23.3 µg/mL
